Ends that are not written are not given here.
Assays:
[1] = Amyloid aggregation assay with thioflavin T (ThT); format: physicochemical; conditions: PBS pH 7.4, 37° C.
Procedure: Purified monoPEGylated human amylin of example 1 was re-suspended in DMSO and diluted to PBS pH 7.4 and allowed to incubate at 37° C. Samples were evaluated for amyloid aggregates by using the amyloid chromogenic probe thioflavin T (ThT).

[2] = Pharmacokinetics in swiss mice, plasma human amylin by ELISA; format: in vivo; conditions: 10 μg peptide in 100 uL saline, FIG. 6
Procedure: The pharmacokinetics of the monoPEGylated human amylin product were characterized in vivo in swiss mice. Mice were housed in a temperature-controlled room with a light-dark cycle of 12 h. Water and food were available ad libitum. Two groups were formed, control (free human amylin, not PEGylated) and PEGylated amylin. Animals received 100 uL of saline containing 10 μg of human amylin peptides, either free human amylin or purified monoPEGylated human amylin. Blood was collected retro-orbitally from mice (n=3 mice for each time interval), and the plasma was subjected to ELISA assay for human amylin as provided by the manufacturer (Millipore, Cat Number EZHA-52K—http://www.millipore.com/catalogue/item/ezha-52k).

RAMP3 = molecular target: T1, RAMP3 (Homo sapiens, UniProt O60896); assay: RAMP-FITC fluorescence anisotropy coreceptor binding assay (RAMP3); conditions: fluorescence anisotropy of RAMP-FITC, duplicate assays, FIG. 3 and 4
T1 sequence (O60896 24-148): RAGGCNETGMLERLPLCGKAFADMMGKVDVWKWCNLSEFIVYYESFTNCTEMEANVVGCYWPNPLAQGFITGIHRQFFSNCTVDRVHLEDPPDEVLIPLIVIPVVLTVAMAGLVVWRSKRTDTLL
Procedure: (§1) Purified monoPEGylated human amylin was assayed for RAMP2 and RAMP3 coreceptor binding interaction.
(§2) RAMP (receptor activity modifying protein) was labeled with fluorescein isothiocianate for 1 h at 4° C. in PBS ([…]) pH 7.4, and purified by size exclusion chromatography (SEC) in Sepharose G25 (agarose-based chromatography media, provided by the US company GE HealthCare) using the same buffer. Labelling was confirmed by UV absorbance measurements at A280 and A490, allowing estimation of coupling efficiency, relying on about 0.5 fluorescein/RAMP molecule.

RAMP2 = RAMP2 (Homo sapiens, UniProt O60895); assay: RAMP-FITC fluorescence anisotropy coreceptor binding assay (RAMP2); conditions: fluorescence anisotropy of RAMP-FITC, duplicate assays, FIG. 3 and 4
Chain of RAMP2 (O60895 43-175, species assumed): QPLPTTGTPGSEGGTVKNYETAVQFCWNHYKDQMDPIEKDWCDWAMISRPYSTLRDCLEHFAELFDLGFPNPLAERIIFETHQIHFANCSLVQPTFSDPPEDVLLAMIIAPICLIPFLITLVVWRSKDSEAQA
Procedure: as §1, §2

Substance	amyloid aggregation (ThT) ([1]; 3 days, FIG. 5)	plasma decay / duration of stability in plasma [2]	amyloid aggregation (ThT) ([1]; day 7, FIG. 5)	apparent binding affinity for coreceptor RAMP3 (RAMP3)	apparent binding affinity for coreceptor RAMP2 (RAMP2)
free human amylin: 37-aminoacid amyloid polypeptide of the Langerhans islets, CAS RN: 106602-62-4; not PEGylated control (KCNTATCATQRLANFLVHSSNNFGAILSSTNVGSNTY; not fully specified (C-terminus, bridges); cysteine pairing not given here)	almost all free human amylin was aggregated in amyloid form	fast plasma decay	–	–	–
monoPEGylated human amylin: monoconjugate of human amylin and mPEG, purified by C18 reversed phase, peak at 9 Kda (example 1) (KCNTATCATQRLANFLVHSSNNFGAILSSTNVGSNTY; not fully specified (C-terminus, bridges); cysteine pairing not given here; also: mono-mPEG conjugate, site not given here; UniProt P10997 34-70, looked up)	–	longer duration of stability in plasma	no signs of aggregation	–	–
HEWL: unrelated protein hen egg white lisozyme used as a control for non-specific binding	–	–	–	non-specific binding	non-specific binding

Source: patent US20160331811A1, “NON-AGGLOMERATING BIOCONJUGATES OF AMYLIN-MIMETIC COMPOUNDS AND POLYETHYLENEGLYCOL” (UNIVERSIDADE FEDERAL DO RIO DE JANEIRO, priority 2013, published 2016)
